According to the supplement of paper PMC12042874:
± gives the uncertainty stated by the source.

Test: amyloid nucleation score (Sup35N fusion, yeast selection) (log enrichment); library NNK3; higher = more nucleation; inactive = no reads after selection
Procedure, shortened: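 Growth for 7 days at 30°C on medium lacking adenine and uracil followed a 24-hour induction with 100 μM copper sulfate of psi-negative yeast expressing peptides of 20 random codons fused to Sup35N. Input and output plasmid inserts were sequenced with Illumina, and sequences with under 100 input reads were excluded. Nucleation score is the DiMSum log enrichment of output over input reads, centred on the mode score of non-aggregating sequences.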

Row | Substance | amyloid nucleation score
1 | VFVPTKYHYMYVLGQWDIFV | inactive
2 | VFVVQNGMPTRFECVLGVQR | inactive
3 | VFYIVMMLVRAPIFFNGVPT | inactive
4 | VFYSKKDRMGGQFS | inactive
5 | VGGGVPVTLGFSLRRSWSVV | 0.199 ± 0.62
6 | VGHPFNCSLDCF | inactive
7 | VGMISCKTILEFGGMSSFVM | inactive
8 | VGNFYVSNVAFLWVK | inactive
9 | VGPLSDSVFMYGT | inactive
10 | VGRVRQVAQLDMGPDMYDRV | inactive
11 | VGSIARLFVQTAMPVPKLAR | inactive
12 | VGSITVRLWYILECGEEVDC | inactive
13 | VGSNTVM | -0.572 ± 0.84
14 | VGTMKNLERVRVCYD | inactive
15 | VGVFSIMV | inactive
16 | VGVYITMVYVSIKENRVEGN | 0.804 ± 0.17
17 | VHAMWKSICNTSCML | 2.53 ± 0.052
18 | VHFLSTVGMKLTALYKGVVM | inactive
19 | VHLQGITSITVGIWPHKHLD | inactive
20 | VHSGQLVTMGMYKLLLSSLC | inactive
21 | VICGYLYVYVYHGFVGSLLG | inactive
22 | VIGWKINGGYPERTS | 0.239 ± 0.42
23 | VIKALRMVCMGHWSYSVTLS | inactive

Row | Substance | amyloid nucleation score
24 | VINCIDMRLVYMLGETFFNY | 2.03 ± 0.083
25 | VINRSLCPERFGKGAL | inactive
26 | VIRPGQYVIWFSRVILSFLF | inactive
27 | VIRSNYWHTLNWLQQNKSRG | inactive
28 | VITMGMSLSSVSGLRDYLQE | 1.36 ± 0.12
29 | VIVCNECLG | 0.546 ± 0.42
30 | VKISMNYKTQLTWLLFAWIL | inactive
31 | VKKLSKVHDSCGMREVLGCH | -0.36 ± 1.1
32 | VKLMASEHLSCIGRI | inactive
33 | VKNTGLSSNHLEH | 1.11 ± 0.13
34 | VKREWSAI | inactive
35 | VKSISNNSQLSSELN | inactive
36 | VKSRNENIDPGCWRLELAPF | inactive
37 | VKVCEVSMQNRIFTGHAHFS | inactive
38 | VKVLYSIAMGIGHGSIGKVC | -0.835 ± 0.96
39 | VKYDDSWYDDWHIYNVYRCK | inactive
40 | VKYSLALVSGNRARGYRRCG | inactive
41 | VLAMCVYSACMWFGNNAMLH | inactive
42 | VLGCVGLCYHRYVNALGGAE | inactive
43 | VLGILVDFDLIKV | inactive
44 | VLGWGSIVMNDEGELSVGMV | inactive
45 | VLIRWRYEAYLSHCGSPCAS | inactive
46 | VLKLRVKVNQVVVDYVLESG | inactive

Row | Substance | amyloid nucleation score
47 | VLLGAVYKQNLANQYYSNLY | inactive
48 | VLLKRL | inactive
49 | VLLVCFLRTRKCSRLLAC | inactive
50 | VLPNYPSFNSSYICWYFWYL | inactive
51 | VLQHRLVFDFYKFCMSTMVH | inactive
52 | VLQYECHVDMCRGRWSLGAI | inactive
53 | VLRRSYYRVSRPELPIWSN | -0.153 ± 1.1
54 | VLSGNFNTSDFLLMFLITSQ | inactive
55 | VLTLLMKVEHTGVSHSVGRV | 1.02 ± 0.19
56 | VLTYTFRPSVSCSNKSKGSA | 0.107 ± 0.35
57 | VLVNPILLPMPLQ | inactive
58 | VLVSVGLVLWACCLRLQ | inactive
59 | VLWAFNLMLVDWRIRFQNWA | inactive
60 | VLWPADFGCPARVQESGSSQ | -0.387 ± 1.5
61 | VLYGRSGVVEANRC | inactive
62 | VLYVRNLMLYGNLCKALLAF | inactive
63 | VMAELVSVKVAQVIVR | inactive
64 | VMCSWLTGCYIQKNRFQGSL | 0.724 ± 0.27
65 | VMFLEDSVFV | inactive
66 | VMFMIAGNC | inactive
67 | VMFRCN | inactive
68 | VMIDRWRNASNWIMFISHYR | -0.611 ± 0.98
69 | VMKPNIEFGN | inactive

Row | Substance | amyloid nucleation score
70 | VMLNNCRGYLANCDSCSW | inactive
71 | VMRIVATQRAGWTGTREPGM | inactive
72 | VMSFVFNTSLWSMYIRIGSP | inactive
73 | VMSLTR | inactive
74 | VMSSCKIRCNDTRTPAAHIC | inactive
75 | VMTAGWYLFLLSGSEGYVVS | -0.325 ± 1.2
76 | VNCLLSRWCGRHA | inactive
77 | VNCWLLAVFTASSATLHNTR | 0.776 ± 0.14
78 | VNDVLGNEPFRVVGEEEIPG | inactive
79 | VNFLSGWEPVIVKYHRSA | inactive
80 | VNFYADRASVHVHSVFHTQD | inactive
81 | VNGSV | inactive
82 | VNITLLRCEGSGMFGRSSKL | 1.13 ± 0.11
83 | VNLITCKQVSFRCQVSGILC | 2.19 ± 0.092
84 | VNSDEPMHWRSSGNYRARIV | inactive
85 | VNTFNFWCI | 2.7 ± 0.081
86 | VPCTWDLFYIGRSMWWFLTM | inactive
87 | VPISHLFSLVLVRPRMTSRY | inactive
88 | VPKKEKWRFDIVL | inactive
89 | VPPFPRMEAGGYVHVVAFSV | inactive
90 | VPPFTLTSVVYLSFCVCGGD | 0.701 ± 0.13
91 | VQCRDVLGNDVFCVYHLGVE | inactive
92 | VQGLGGNWW | inactive

Row | Substance | amyloid nucleation score
93 | VQGRYLRRVCMRMVPLRRTD | inactive
94 | VQISVNSVNLLKRWFIRAGT | inactive
95 | VQNNFGVSNAGNGLCWGCIC | 2.65 ± 0.051
96 | VQRGSTALVFDVSTSIFMNI | 1.57 ± 0.12
97 | VQVLYVICLSSSMLYRLVVR | inactive
98 | VRAGSLYHCVRNPISRGLAV | -0.57 ± 1.8
99 | VRFYVLSPKDFWAFLKILFR | inactive
100 | VRHGCG | inactive
101 | VRIRGWFAGHGNFWFSL | inactive
102 | VRKKCLDPDGFLSRLGPAFD | -0.429 ± 0.91
103 | VRLFRVLWRIIPDGVSMKSV | inactive
104 | VRLTTWLAYNLMVSSDTMFC | inactive
105 | VRNNVCRPVCYGWNGGYITV | inactive
106 | VRRSMATLFWCWDYTNLDCI | inactive
107 | VRSCAKLPSVHKYLAQARRL | inactive
108 | VRSFFYRSLYQCISRNPCCA | inactive
109 | VRSNVKDRFT | inactive
110 | VRSTTQHVHLICCNEYFRH | 2.82 ± 0.052
111 | VRTDYWVGYVIFYHIVSRGL | inactive
112 | VSDDLMDGSKNVLFARVEGD | inactive
113 | VSFCGTPFFYHWRHSNWLFK | inactive
114 | VSFFDQTKASGYSLRLMLFM | inactive
115 | VSGQVVFGLWGYLWLYEEVF | inactive

Row | Substance | amyloid nucleation score
116 | VSGVECSCD | 0.762 ± 0.15
117 | VSIFCCQPSSVIAVDISDHS | 2.93 ± 0.068
118 | VSIRAVRYKVLGLFWSSTHV | inactive
119 | VSLFYKCSYNGVYNNRVLAP | 1.43 ± 0.09
120 | VSLMP | inactive
121 | VSNMGSMIVVVSVRCYM | 1.45 ± 0.094
122 | VSPVGSSRWWHDLHVSLETS | inactive
123 | VSRCRVHKFTGYC | -0.441 ± 0.8
124 | VSRKMRLVWTRLVER | inactive
125 | VSRTSVSRRFYCIARMCSPV | inactive
126 | VSSMYVVIHGV | inactive
127 | VSSSVVYTFVMSSLLGVDNE | inactive
128 | VSTSVDYFYGGPWTLVFGCL | 2.6 ± 0.072
129 | VSTYGWAVRWGVFWGSMTYT | inactive
130 | VSVLIHGKRSFGMWCSMHAY | inactive
131 | VSVLRWLKRLDLHCGGV | inactive
132 | VSVVNYKVVHSSAEKVFSFS | inactive
133 | VSYISDQGC | inactive
134 | VSYVCDPLRKIVGTLVRKQV | 0.563 ± 0.33
135 | VTAMSMNVAQCPAYPR | inactive
136 | VTCPNFQKIYRQGCYGGFDT | inactive
137 | VTCSYQMVLWAAFVVKCPAL | 0.817 ± 0.21
138 | VTCVVVVGVHVRRHGFQEYV | inactive

Row | Substance | amyloid nucleation score
139 | VTFTHKEHGRPNTRSFTKYL | inactive
140 | VTGHLGKG | inactive
141 | VTIITMEIWL | 1.64 ± 0.06
142 | VTLCVVEPDCWRIGG | inactive
143 | VTLLPVSVCINAFNLILGPF | 3.08 ± 0.065
144 | VTPSTGRSIVVTPGTYIARV | inactive
145 | VTRETADDATVSQFWLNPSE | inactive
146 | VTRMLFVHCGTSVNVNS | inactive
147 | VTRSDGTTISYNISIKLGKG | 2.2 ± 0.071
148 | VTSAPNKCFNLFYVNWDHNN | 0.784 ± 0.17
149 | VTSIPIPR | inactive
150 | VTVCSFLLVSRNRNRLRRIY | inactive
151 | VTVSPWLFFVWNDGLCSARL | 1.05 ± 0.096
152 | VVAIWLLGAINMLITTIYSS | inactive
153 | VVCLFRVRYRW | 1.48 ± 0.12
154 | VVCLGTFITGDFIVVYTHYG | 2.88 ± 0.054
155 | VVDDIWRPIDL | inactive
156 | VVFCEYSTCAVRSL | -0.219 ± 0.89
157 | VVGFMYYARFLPSDFVSINA | inactive
